In experiment [1] the target is mouse/human type 2 prolyl 4-hydroxylase tetramer (mouse; human) (UniProt P07237). The experiment can be described thus: cell-based or functional assay.
For experiment [2], the target named is human type 1 prolyl 4-hydroxylase tetramer (human) (UniProt P13674). The experiment is described as follows: inhibition of prolyl 4-hydroxylase activity (2-oxo[1-14C]glutarate decarboxylation), insect cell extract.

As a reminder, the pKi is −log10 of the Ki, conventionally taken in molar units. Higher therefore signals a small Ki.

pKi: −log10 of the molar value.

Sequence of human type 1 prolyl 4-hydroxylase tetramer (human) (P13674 18-534, chain 1 of 2): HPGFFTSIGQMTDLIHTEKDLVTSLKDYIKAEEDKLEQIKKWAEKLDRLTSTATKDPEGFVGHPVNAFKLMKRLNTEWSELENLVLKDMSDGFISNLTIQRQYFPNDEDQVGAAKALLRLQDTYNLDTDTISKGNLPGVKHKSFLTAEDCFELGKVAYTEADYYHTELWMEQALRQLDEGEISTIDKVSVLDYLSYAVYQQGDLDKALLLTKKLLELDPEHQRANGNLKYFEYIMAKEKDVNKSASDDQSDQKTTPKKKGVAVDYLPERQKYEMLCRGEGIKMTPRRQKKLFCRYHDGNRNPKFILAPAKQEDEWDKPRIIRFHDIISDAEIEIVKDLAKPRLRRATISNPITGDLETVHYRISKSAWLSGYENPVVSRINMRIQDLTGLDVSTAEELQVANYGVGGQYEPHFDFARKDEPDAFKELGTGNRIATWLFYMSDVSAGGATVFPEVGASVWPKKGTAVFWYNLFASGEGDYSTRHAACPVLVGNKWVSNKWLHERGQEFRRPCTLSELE
Sequence of human type 1 prolyl 4-hydroxylase tetramer (human) (P07237 18-508, chain 2 of 2, further chain): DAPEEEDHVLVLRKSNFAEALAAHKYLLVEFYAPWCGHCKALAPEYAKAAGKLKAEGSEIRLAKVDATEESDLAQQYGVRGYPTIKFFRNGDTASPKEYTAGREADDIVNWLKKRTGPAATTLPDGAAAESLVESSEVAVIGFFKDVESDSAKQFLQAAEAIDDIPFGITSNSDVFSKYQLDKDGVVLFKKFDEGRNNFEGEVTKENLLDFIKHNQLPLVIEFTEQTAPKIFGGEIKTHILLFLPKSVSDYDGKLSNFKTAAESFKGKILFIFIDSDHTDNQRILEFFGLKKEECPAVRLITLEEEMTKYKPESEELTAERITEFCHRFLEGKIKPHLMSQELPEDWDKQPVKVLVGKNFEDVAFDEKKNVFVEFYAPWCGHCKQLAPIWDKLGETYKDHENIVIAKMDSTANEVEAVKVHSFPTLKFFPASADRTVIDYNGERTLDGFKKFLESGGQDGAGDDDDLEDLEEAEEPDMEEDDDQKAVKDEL
Sequence of mouse/human type 2 prolyl 4-hydroxylase tetramer (mouse; human) (chain, as listed by the source, chain 1 of 2): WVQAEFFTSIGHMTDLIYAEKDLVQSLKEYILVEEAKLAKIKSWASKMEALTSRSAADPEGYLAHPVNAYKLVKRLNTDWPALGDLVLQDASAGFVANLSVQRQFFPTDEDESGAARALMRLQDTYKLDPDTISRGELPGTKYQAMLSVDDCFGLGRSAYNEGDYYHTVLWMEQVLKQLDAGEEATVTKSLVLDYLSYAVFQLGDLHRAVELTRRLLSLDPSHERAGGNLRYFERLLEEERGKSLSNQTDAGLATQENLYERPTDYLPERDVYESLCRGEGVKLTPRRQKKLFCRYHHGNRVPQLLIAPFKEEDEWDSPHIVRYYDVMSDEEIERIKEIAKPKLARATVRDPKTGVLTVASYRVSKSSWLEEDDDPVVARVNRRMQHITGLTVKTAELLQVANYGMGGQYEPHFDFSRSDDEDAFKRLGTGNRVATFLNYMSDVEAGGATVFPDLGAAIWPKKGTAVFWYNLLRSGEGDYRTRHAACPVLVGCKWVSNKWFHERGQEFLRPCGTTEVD
Sequence of mouse/human type 2 prolyl 4-hydroxylase tetramer (mouse; human) (P07237 18-508, chain 2 of 2): as the sequence (P07237 18-508, chain 2 of 2, further chain) above

On to Poly(L-proline), Mr 7000 (peptide), for which, in experiment [1], the IC50 (inhibition of prolyl 4-hydroxylase activity; printed in the Ki row) stood at 300 µM. This substance also had a pKi in experiment [2] of 6.30.

As to Poly(L-proline), Mr 44,000 (peptide), the IC50 (inhibition of prolyl 4-hydroxylase activity; printed in the Ki row) in experiment [1] was 30 µM. This substance also had a pKi in experiment [2] of 7.70.

(Values after patent publication US20020177203A1, “Alpha2 subunit of prolyl 4-hydroxylase” (priority 1996, published 2002).)
